In patent US20220119534A1 (DRAGONFLY THERAPEUTICS, published 2022):
“And” between values parts separate entries of the source, which are not always exact repeats. Equal entries are not always repeated.

T1: mFc-hNKG2D (human, UniProt P26718 73-216)
T1 construct: extracellular domain; Made in house (Dragonfly Tx); the order of tag and ECD follows the name mFc-hNKG2D; also called mFc-tagged human NKG2D; not shown: mouse Fc tag
T1 sequence (looked up): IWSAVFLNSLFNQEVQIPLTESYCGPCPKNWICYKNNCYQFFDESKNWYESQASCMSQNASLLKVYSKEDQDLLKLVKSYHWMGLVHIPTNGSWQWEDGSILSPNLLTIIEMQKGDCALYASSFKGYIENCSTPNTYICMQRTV

T2: Human CD32a H131 (human, UniProt P12318 36-218, limits assumed, biotinylated)
T2 construct: Bought recombinant receptor; also called hFcγRIIa H131
T2 sequence (looked up): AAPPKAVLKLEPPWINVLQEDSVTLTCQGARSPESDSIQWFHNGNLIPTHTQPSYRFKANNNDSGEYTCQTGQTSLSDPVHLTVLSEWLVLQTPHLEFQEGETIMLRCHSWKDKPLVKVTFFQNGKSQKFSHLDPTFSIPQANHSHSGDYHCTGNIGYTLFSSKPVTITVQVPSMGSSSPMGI

T3: mFc-hNKG2D (human, UniProt P26718 73-216)
T3 construct: extracellular domain; Recombinant mFc-tagged NKG2D dimer, made in house; also called human NKG2D; not shown: mouse Fc tag
T3 sequence (looked up): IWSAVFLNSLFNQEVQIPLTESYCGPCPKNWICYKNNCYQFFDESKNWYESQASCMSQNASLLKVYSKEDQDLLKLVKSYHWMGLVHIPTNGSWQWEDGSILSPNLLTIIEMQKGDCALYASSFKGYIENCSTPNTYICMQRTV

T4: Human CLEC12A-His (human, UniProt Q5QGZ9 65-265)
T4 construct: Recombinant soluble protein made in house; also called hCLEC12A-His; hCLEC12A; not shown: His tag
T4 sequence: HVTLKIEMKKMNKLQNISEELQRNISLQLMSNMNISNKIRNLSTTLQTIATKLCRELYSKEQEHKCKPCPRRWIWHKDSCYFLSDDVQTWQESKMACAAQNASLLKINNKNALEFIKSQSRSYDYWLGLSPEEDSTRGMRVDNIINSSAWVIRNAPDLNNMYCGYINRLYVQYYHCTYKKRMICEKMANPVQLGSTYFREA


Experiments:
mFc-hNKG2D [1] = target: T1, mFc-hNKG2D; experiment: SPR Biacore 8K 37 C; mFc-hNKG2D captured on anti-mFc chip, TriNKET as analyte; steady state fit; control sample
Description: Association was monitored for 60 seconds and dissociation was monitored for 60 seconds. Surfaces were regenerated between cycles with three pulses of 10 mM glycine-HCl, pH 1.7 injected for 20 seconds at 100 μL/min. HBS-EP+ (1×) buffer was used throughout the experiment. Data were analyzed using Biacore 8K Insight evaluation software (GE Healthcare).

mFc-hNKG2D [2] = target: T1, mFc-hNKG2D; experiment: SPR Biacore 8K 37 C; mFc-hNKG2D captured on anti-mFc chip, TriNKET as analyte; kinetics fit
Description: Association was monitored for 60 seconds, and dissociation was monitored for 60 seconds. Surfaces were regenerated between cycles with three pulses of 10 mM glycine-HCl (pH 1.7) injected for 20 seconds at 100 μL/min.
Two different fits were utilized to obtain the equilibrium affinity data: steady state affinity fit and kinetic fit.

Cynomolgus CD64 = target: T5, Cynomolgus CD64 (cynomolgus monkey, UniProt A0A2K5U901 33-309, Probably biotinylated for capture, as in the sister examples (p-1094).); experiment: SPR, cynomolgus CD64 captured; average for AB0192
T5 construct: Bought recombinant receptor; also called cFcγRI; Cynomolgus CD64 (FcγRI); not shown: The vendor's biotinylation and purification tag
T5 sequence (A0A2K5U901 entry or part of it limits assumed): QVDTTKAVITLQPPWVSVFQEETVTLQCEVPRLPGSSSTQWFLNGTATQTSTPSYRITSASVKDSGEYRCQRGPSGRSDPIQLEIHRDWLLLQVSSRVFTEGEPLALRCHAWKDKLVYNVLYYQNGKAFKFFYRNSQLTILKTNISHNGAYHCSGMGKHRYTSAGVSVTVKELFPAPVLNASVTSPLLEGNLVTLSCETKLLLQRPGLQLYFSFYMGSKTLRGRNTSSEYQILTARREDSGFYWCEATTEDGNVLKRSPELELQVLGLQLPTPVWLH

Cynomolgus FcRn = target: T6, Cynomolgus FcRn (cynomolgus monkey, UniProt Q8SPV9 24-297; Q8SPW0 21-119); experiment: SPR, steady state fit
T6 construct: Bought recombinant receptor; also called cFcRn; Cyno FcRn
T6 sequence (Q8SPV9 24-297 limits assumed, chain 1 of 2): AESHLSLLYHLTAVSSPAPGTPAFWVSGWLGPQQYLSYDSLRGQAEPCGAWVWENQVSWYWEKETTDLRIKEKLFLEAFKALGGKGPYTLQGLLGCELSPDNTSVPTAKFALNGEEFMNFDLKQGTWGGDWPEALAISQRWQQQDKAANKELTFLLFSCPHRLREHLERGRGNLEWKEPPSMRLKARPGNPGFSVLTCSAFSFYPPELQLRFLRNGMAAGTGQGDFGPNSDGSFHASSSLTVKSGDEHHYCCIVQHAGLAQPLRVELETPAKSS
T6 sequence (Q8SPW0 21-119 limits assumed, chain 2 of 2): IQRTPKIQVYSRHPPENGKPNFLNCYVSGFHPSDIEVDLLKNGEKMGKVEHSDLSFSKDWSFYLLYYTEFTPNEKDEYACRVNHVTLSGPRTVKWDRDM

Human FcRn = target: T7, Human FcRn (human, UniProt P55899 24-297; P61769 21-119); experiment: SPR, steady state fit
T7 construct: Bought recombinant receptor; also called hFcRn

Human CD32a H131 = target: T2, Human CD32a H131; experiment: SPR, steady state fit
mFc-hNKG2D [3] = target: T3, mFc-hNKG2D; experiment: SPR; control sample (pH 8 stress study)
Human CLEC12A-His = target: T4, Human CLEC12A-His; experiment: SPR; control sample (pH 8 stress study)
Human CD16a V158 = target: T8, Human CD16a V158 (human, UniProt P08637 17-208, biotinylated); experiment: SPR; control sample (pH 8 stress study)
T8 construct: Bought recombinant receptor; also called hCD16a (V158); hFcγRIIIa V158
T8 sequence (P08637 17-208 F176V limits assumed): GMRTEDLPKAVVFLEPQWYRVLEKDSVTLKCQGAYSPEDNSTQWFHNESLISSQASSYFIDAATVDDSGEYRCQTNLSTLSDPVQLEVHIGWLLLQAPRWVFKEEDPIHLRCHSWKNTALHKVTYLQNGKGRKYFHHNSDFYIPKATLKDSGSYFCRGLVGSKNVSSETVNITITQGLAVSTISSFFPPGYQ

Kd (mFc-hNKG2D [1]) [nM] | Kd (mFc-hNKG2D [2]) | Kd (Cynomolgus CD64) [nM] | koff (Cynomolgus CD64) [s⁻¹] | kon (Cynomolgus CD64) [M⁻¹ s⁻¹] | Kd (Cynomolgus FcRn) | Kd (Human FcRn) | Kd (Human CD32a H131) | Kd (mFc-hNKG2D [3]) [nM] | koff (mFc-hNKG2D [3]) [s⁻¹] | kon (mFc-hNKG2D [3]) [M⁻¹ s⁻¹] | Kd (Human CLEC12A-His) [nM] | koff (Human CLEC12A-His) [s⁻¹] | kon (Human CLEC12A-His) [M⁻¹ s⁻¹] | Kd (Human CD16a V158) [nM] | koff (Human CD16a V158) [s⁻¹] | kon (Human CD16a V158) [M⁻¹ s⁻¹] | Binder
771 | 703 nM and 705 nM and 745 nM and 732 nM | – | – | – | – | – | – | – | – | – | – | – | – | – | – | – | F3'-1602 TriNKET (bispecific antibody, human IgG1, kappa, Trispecific F3' format: CLEC12A scFv-Fc paired with NKG2D Fab-Fc; Stressed and control samples of the stability studies are the same molecule; also called AB0237) QLQLQESGPGLVKPSETLSLTCTVSGFSLTNYGLHWIRQPPGKCLEWIGVIWSGGKTDYNPSLKSRVTISKDTSKNQFSLKLSSVQAADTAVYYCAKYDYDDSLDYWGQGTLVTVSSGGGGSGGGGSGGGGSGGGGSDIQMTQSPSSLSASVGDRVTITCHASQNINFWLSWYQQKPGKAPKLLIYEASNLHTGVPSRFSGSGSGTRFTLTISSLQPEDIATYYCQQSHSYPLTFGCGTKLEIKGSDKTHTCPPCPAPELLGGPSVFLFPPKPKDTLMISRTPEVTCVVVDVSHEDPEVKFNWYVDGVEVHNAKTKPREEQYNSTYRVVSVLTVLHQDWLNGKEYKCKVSNKALPAPIEKTISKAKGQPREPRVYTLPPCRDELTKNQVSLTCLVKGFYPSDIAVEWESNGQPENNYKTTPPVLVSDGSFTLYSKLTVDKSRWQQGNVFSCSVMHEALHNHYTQKSLSLSPG heavy: EVQLVESGGGLVKPGGSLRLSCAASGFTFSSYSMNWVRQAPGKGLEWVSSISSSSSYIYYADSVKGRFTISRDNAKNSLYLQMNSLRAEDTAVYYCARGAPIGAAAGWFDPWGQGTLVTVSSASTKGPSVFPLAPSSKSTSGGTAALGCLVKDYFPEPVTVSWNSGALTSGVHTFPAVLQSSGLYSLSSVVTVPSSSLGTQTYICNVNHKPSNTKVDKKVEPKSCDKTHTCPPCPAPELLGGPSVFLFPPKPKDTLMISRTPEVTCVVVDVSHEDPEVKFNWYVDGVEVHNAKTKPREEQYNSTYRVVSVLTVLHQDWLNGKEYKCKVSNKALPAPIEKTISKAKGQPREPQVCTLPPSRDELTENQVSLTCLVKGFYPSDIAVEWESNGQPENNYKTTPPVLDSDGSFFLYSWLTVDKSRWQQGNVFSCSVMHEALHNHYTQKSLSLSPG light: DIQMTQSPSSVSASVGDRVTITCRASQGISSWLAWYQQKPGKAPKLLIYAASSLQSGVPSRFSGSGSGTDFTLTISSLQPEDFATYYCQQGVSFPRTFGGGTKVEIKRTVAAPSVFIFPPSDEQLKSGTASVVCLLNNFYPREAKVQWKVDNALQSGNSQESVTEQDSKDSTYSLSSTLTLSKADYEKHKVYACEVTHQGLSSPVTKSFNRGEC
– | – | 1.9 | 0.00012 | 62000 | 1500 nM and 1400 nM and 1200 nM | 1500 nM and 1300 nM | 1040 nM and 921 nM and 1070 nM and 1020 nM | 588 | 0.122 | 208000 | 1.68 | 0.00129 | 771000 | 171 | 0.0199 | 117000 | AB0192 TriNKET (other, the condition stands under assay; also called AB0192 Lot AB0192-005) EVQLVESGGGVVQPGGSLRLSCAASGFTFNAFGMHWVRQAPGKCLEWVAFISSGSTSIYYANTVKGRFTISRDNSKNTLYLQMNSLRAEDTAVYYCARDGYPTGGAMDYWGQGTSVTVSSGGGGSGGGGSGGGGSGGGGSDIQMTQSPSSLSASVGDRVTITCKASQDIYNYLSWFQQKPGKAPKPLIYRANILVSGVPSRFSGSGSGQDYTFTISSLQPEDIATYYCLQFDAFPFTFGCGTKLEIKGSDKTHTCPPCPAPELLGGPSVFLFPPKPKDTLMISRTPEVTCVVVDVSHEDPEVKFNWYVDGVEVHNAKTKPREEQYNSTYRVVSVLTVLHQDWLNGKEYKCKVSNKALPAPIEKTISKAKGQPREPRVYTLPPCRDELTKNQVSLTCLVKGFYPSDIAVEWESNGQPENNYKTTPPVLVSDGSFTLYSKLTVDKSRWQQGNVFSCSVMHEALHNHYTQKSLSLSPG heavy: EVQLVESGGGLVKPGGSLRLSCAASGFTFSSYSMNWVRQAPGKGLEWVSSISSSSSYIYYADSVKGRFTISRDNAKNSLYLQMNSLRAEDTAVYYCARGAPIGAAAGWFDPWGQGTLVTVSSASTKGPSVFPLAPSSKSTSGGTAALGCLVKDYFPEPVTVSWNSGALTSGVHTFPAVLQSSGLYSLSSVVTVPSSSLGTQTYICNVNHKPSNTKVDKKVEPKSCDKTHTCPPCPAPELLGGPSVFLFPPKPKDTLMISRTPEVTCVVVDVSHEDPEVKFNWYVDGVEVHNAKTKPREEQYNSTYRVVSVLTVLHQDWLNGKEYKCKVSNKALPAPIEKTISKAKGQPREPQVCTLPPSRDELTENQVSLTCLVKGFYPSDIAVEWESNGQPENNYKTTPPVLDSDGSFFLYSWLTVDKSRWQQGNVFSCSVMHEALHNHYTQKSLSLSPG light: DIQMTQSPSSVSASVGDRVTITCRASQGISSWLAWYQQKPGKAPKLLIYAASSLQSGVPSRFSGSGSGTDFTLTISSLQPEDFATYYCQQGVSFPRTFGGGTKVEIKRTVAAPSVFIFPPSDEQLKSGTASVVCLLNNFYPREAKVQWKVDNALQSGNSQESVTEQDSKDSTYSLSSTLTLSKADYEKHKVYACEVTHQGLSSPVTKSFNRGEC
